Laboratory results: publication PMC9823007

Target: NyxB (His tag cleaved, for crystallisation, SEC-MALS and SAXS) (Brucella abortus 2308) (UniProt Q2YPZ9)
Test: SEC-MALS

Q: With “NyxB (His tag cleaved, for crystallisation, SEC-MALS and SAXS) (from UniProt Q2YPZ9 1-134) (natural protein)” as the substance, how does the stoichiometry N read?
A: 2
